Results as given in patent publication US20040077046.

Test system: 3H-acetylated histone H4 peptide ([3H]-Ac(H41-24))

flag epitope-tagged HDAC9 (HDAC9v1 with C-terminal flag tag)
in vitro histone deacetylase assay (release of 3H-acetate from the peptide by immunoprecipitated enzyme): HDAC9 could deacetylate the histone peptide substrate at a level that was equivalent to UDAC3 and HDAC4
